Tests used:
[1] = test system: T1, CC(C)=CCC/C(C)=C/CC/C(C)=C/CC/C=C(\C)CC/C=C(\C)CC[C@@H]1OC1(C)C; assay: GC-MS of reaction product, yeast homogenate (Methods; Results text says purified variants); type: biochemical, Siraitia grosvenorii; conditions: 30 °C, pH 7.0, 100 mM sodium phosphate, 0.1% Triton X-100, allele 50R573L
T1 construct: full length, 759 residues; yeast codon-optimised in pCEV-G4-Km, S. cerevisiae BY4742, no tag told
From the text: GC-MS of reaction product, yeast homogenate (Methods; Results text says purified variants) on SgCS (cucurbitadienol synthase, wild type 50R573L)

[2] = test system: T1, CC(C)=CCC/C(C)=C/CC/C(C)=C/CC/C=C(\C)CC/C=C(\C)CC[C@@H]1OC1(C)C; assay: as above; type: biochemical, Siraitia grosvenorii; conditions: 30 °C, pH 7.0, 100 mM sodium phosphate, 0.1% Triton X-100, natural allele 50C573L

Sequence of SgCS (cucurbitadienol synthase, wild type 50R573L) (Siraitia grosvenorii) (chain, as listed by the source): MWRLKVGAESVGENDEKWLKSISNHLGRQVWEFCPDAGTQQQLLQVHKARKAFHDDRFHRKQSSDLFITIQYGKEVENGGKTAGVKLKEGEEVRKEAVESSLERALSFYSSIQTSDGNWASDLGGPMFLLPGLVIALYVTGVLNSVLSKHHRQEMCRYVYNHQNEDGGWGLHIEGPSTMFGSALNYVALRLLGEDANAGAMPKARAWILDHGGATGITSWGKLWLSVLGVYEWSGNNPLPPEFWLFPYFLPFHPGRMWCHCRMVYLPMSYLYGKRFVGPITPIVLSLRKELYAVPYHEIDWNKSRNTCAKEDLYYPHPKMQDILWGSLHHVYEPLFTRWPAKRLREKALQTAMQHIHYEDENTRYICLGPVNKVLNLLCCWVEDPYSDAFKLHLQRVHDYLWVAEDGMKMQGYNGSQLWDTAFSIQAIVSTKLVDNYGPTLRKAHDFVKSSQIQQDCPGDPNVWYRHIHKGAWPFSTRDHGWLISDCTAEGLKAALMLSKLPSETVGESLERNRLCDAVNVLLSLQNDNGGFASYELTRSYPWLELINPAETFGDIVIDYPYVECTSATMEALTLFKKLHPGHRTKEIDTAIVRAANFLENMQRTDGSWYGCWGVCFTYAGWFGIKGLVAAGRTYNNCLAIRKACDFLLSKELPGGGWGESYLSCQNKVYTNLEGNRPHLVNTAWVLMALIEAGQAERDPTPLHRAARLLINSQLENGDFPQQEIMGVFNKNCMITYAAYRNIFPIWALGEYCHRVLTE
Sequence of SgCS (cucurbitadienol synthase, wild type 50R573L) (Siraitia grosvenorii; R50C) (chain, as listed by the source R50C): as the sequence (chain, as listed by the source) above, with R50C counted along it

Substance | Km [1] [µM] | kcat [1] [s⁻¹] | kcat/Km [1] [M⁻¹ s⁻¹] | Km [2] [µM] | kcat [2] [s⁻¹] | kcat/Km [2] [M⁻¹ s⁻¹]
SgCS (cucurbitadienol synthase, wild type 50R573L) (Siraitia grosvenorii) | 0.29 | 0.0147 | 49700 | – | – | –
SgCS (cucurbitadienol synthase, wild type 50R573L) (Siraitia grosvenorii; R50C) | – | – | – | 0.32 | 0.0128 | 40200

Reference: paper PMC6384864, “Identification of a Novel Specific Cucurbitadienol Synthase Allele in Siraitia grosvenorii Correlates with High Catalytic Efficiency” (Molecules, 2019)
